Results published in US20240400640A1 (published 2024).

Target: IL-21-Fc
Assay: SPR

B1: hIL-21 receptor (receptor)
chain: not shown
- Kd: 1.68 pM
